Consider two substances from US20050089523A1.

Assay [1] concerns the target murine vascular endothelial adhesion molecule-1 (VCAM-1) (murine) (UniProt P29533). Description: cell-based or functional assay.
Assay [2] has the same target. Kind of assay: bEnd.3 cells treated with coaguligand, detected with 125I-labeled 10H10; attributed to constitutive VCAM-1 expression.
In assay [3] the target is anti-VCAM-1•tTF coaguligand (anti-VCAM-1 antibody MK2.7 covalently linked through SMPT to truncated tissue factor, one antibody to one tTF, Mr 180,000) (human) (UniProt P13726). Kind of assay: 125I-labeled 10H10 bound to anti-VCAM-1•tTF-treated, IL-1alpha-activated bEnd.3 cells, at saturation.

Chain of UniProt P29533 (P29533 25-739): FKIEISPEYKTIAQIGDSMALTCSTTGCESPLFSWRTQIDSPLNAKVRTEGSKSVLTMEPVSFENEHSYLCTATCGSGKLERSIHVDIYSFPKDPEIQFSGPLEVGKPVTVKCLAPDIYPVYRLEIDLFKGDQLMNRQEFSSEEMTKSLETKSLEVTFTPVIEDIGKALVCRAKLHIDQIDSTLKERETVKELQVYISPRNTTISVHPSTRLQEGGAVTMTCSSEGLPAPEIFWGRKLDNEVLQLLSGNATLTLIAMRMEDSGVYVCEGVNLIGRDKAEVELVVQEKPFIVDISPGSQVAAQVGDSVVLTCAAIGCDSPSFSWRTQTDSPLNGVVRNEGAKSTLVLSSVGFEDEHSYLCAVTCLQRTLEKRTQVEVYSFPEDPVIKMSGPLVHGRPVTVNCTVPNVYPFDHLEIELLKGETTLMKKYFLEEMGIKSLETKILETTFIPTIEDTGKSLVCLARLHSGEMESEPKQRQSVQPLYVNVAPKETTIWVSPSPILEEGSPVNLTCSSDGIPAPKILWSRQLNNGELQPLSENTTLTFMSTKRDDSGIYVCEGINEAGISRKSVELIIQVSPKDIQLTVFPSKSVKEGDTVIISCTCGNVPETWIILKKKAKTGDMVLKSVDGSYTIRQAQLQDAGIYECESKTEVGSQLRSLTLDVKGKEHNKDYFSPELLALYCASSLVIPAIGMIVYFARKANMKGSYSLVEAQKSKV

As to “anti-VCAM-1•tTF coaguligand (anti-VCAM-1 antibody MK2.7 covalently linked through SMPT to truncated tissue factor, one antibody to one tTF, Mr 180,000) (from UniProt P13726 33-251)”, in assay [1], the Generation of Factor Xa by anti-VCAM-1•tTF bound to intact, IL-1α-stimulated bEnd.3 cells (ng per 10^4 cells per 60 min.) amounted to 3.17; the Generation of Factor Xa by anti-VCAM-1•tTF bound to intact, unstimulated (control) bEnd.3 cells (ng per 10^4 cells per 60 min.) came to 1.64; the Generation of Factor Xa by anti-VCAM-1•tTF bound to saponin-permeabilized, IL-1α-stimulated bEnd.3 cells (ng per 10^4 cells per 60 min.) amounted to 98.8; the Generation of Factor Xa by anti-VCAM-1•tTF bound to saponin-permeabilized, unstimulated (control) bEnd.3 cells (ng per 10^4 cells per 60 min.) is 49.2. In assay [2], the binding to unstimulated cells relative to activated cells was found to be 0.5.
Take “10H10, mouse monoclonal antibody against human tissue factor”: in assay [3], the amount of anti-TF antibody bound at saturation is 8.7 fmol and the molecules of anti-TF antibody bound per cell (molecules per cell) was 540000.
